Source: patent US20220024981A1 (Novartis, published 2022)
Bridge positions count the residues as written; N and C are the ends. Square brackets hold non-standard residues; d marks the D form. Phe(3,4-Cl2) = N[C@@H](Cc1ccc(Cl)c(Cl)c1)C(=O)O; Phe(4-CF3) = N[C@@H](Cc1ccc(C(F)(F)F)cc1)C(=O)O; Bip = N[C@@H](Cc1ccc(-c2ccccc2)cc1)C(=O)O; Phe(3-F) = N[C@@H](Cc1cccc(F)c1)C(=O)O; NMeF = CN[C@@H](Cc1ccccc1)C(=O)O; NMeE = CN[C@@H](CCC(=O)O)C(=O)O; NMeA = CN[C@@H](C)C(=O)O

Target: T1, Human PCSK9 Alexa Fluor 647 (human, UniProt Q8NBP7 31-692, limits assumed, Alexa Fluor 647 label (site not stated))
T1 construct: Labelled tracer of the TR-FRET assay, 16 nM stock; also called proprotein convertase subtilisin/kexin type 9
Test: TR-FRET competition: PCSK9-Alexa Fluor 647 vs LDLR ECD-Eu kryptate
Description: A Proxi plate-low volume assay plate was used for the assay. […] Following a 30 minute incubation, 5 uL of 4 nM Human LDLR extracellular domain-Europium Kryptate was added and the mixture was incubated for an additional 2 hours.
The TR-FRET signal was measured on an EnVision or PheraStar instrument with a 60 μs delay, 330 nm excitation and 665 nm emission (FRET), and 330 nm excitation and 615 nm (Europium). The FRET ratio (FRET/Europium) was used for calculations.

T1 sequence (Q8NBP7 31-692 limits assumed): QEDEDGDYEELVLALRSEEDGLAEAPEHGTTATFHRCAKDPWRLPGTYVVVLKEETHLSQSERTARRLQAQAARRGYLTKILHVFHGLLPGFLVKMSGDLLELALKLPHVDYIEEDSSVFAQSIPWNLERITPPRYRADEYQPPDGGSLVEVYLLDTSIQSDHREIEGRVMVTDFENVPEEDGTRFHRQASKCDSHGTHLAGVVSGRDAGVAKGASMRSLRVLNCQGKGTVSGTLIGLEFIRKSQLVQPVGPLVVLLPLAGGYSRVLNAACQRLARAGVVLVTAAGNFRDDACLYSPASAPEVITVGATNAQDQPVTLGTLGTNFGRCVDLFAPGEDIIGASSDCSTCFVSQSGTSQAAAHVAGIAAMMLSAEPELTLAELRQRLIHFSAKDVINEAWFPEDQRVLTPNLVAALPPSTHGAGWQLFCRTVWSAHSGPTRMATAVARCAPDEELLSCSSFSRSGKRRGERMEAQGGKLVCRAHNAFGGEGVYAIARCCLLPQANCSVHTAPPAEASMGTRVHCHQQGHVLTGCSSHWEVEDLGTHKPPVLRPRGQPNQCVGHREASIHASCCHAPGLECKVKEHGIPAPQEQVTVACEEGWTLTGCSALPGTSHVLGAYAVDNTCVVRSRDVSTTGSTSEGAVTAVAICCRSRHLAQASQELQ

| Binder | IC50 [nM] | Maximum % inhibition [%] |
| --- | --- | --- |
| {CH2CO}-FVDSTY[NMeA][Bip][NMeA]NHPCG-NH2 (thioether N-13; SMILES CC(C)[C@@H]1NC(=O)[C@H](Cc2ccccc2)NC(=O)CSC[C@@H](C(=O)NCC(N)=O)NC(=O)[C@@H]2CCCN2C(=O)[C@H](Cc2c[nH]cn2)NC(=O)[C@H](CC(N)=O)NC(=O)[C@H](C)N(C)C(=O)[C@H](Cc2ccc(-c3ccccc3)cc2)NC(=O)[C@H](C)N(C)C(=O)[C@H](Cc2ccc(O)cc2)NC(=O)[C@H]([C@@H](C)O)NC(=O)[C@H](CO)NC(=O)[C@H](CC(=O)O)NC1=O, also called 1-4; Ex. No. 1-4) [Ac*-F-V-D-S-T-Y-(N-Me)A-B-(N-Me)A-N-H-P-C*-G-NH2] | 4 | 60 |
| {CH2CO}-FVDTTS[NMeF][Phe(4-CF3)][NMeA]ESPCG-NH2 (thioether N-13; SMILES CC(C)[C@@H]1NC(=O)[C@H](Cc2ccccc2)NC(=O)CSC[C@@H](C(=O)NCC(N)=O)NC(=O)[C@@H]2CCCN2C(=O)[C@H](CO)NC(=O)[C@H](CCC(=O)O)NC(=O)[C@H](C)N(C)C(=O)[C@H](Cc2ccc(C(F)(F)F)cc2)NC(=O)[C@H](Cc2ccccc2)N(C)C(=O)[C@H](CO)NC(=O)[C@H]([C@@H](C)O)NC(=O)[C@H]([C@@H](C)O)NC(=O)[C@H](CC(=O)O)NC1=O, also called 1-6; Ex. No. 1-6) [Ac*-F-V-D-T-T-S-(N-Me)F-(p-CF3)F-(N-Me)A-E-S-P-C*-G-NH2] | 12 | 97 |
| FVSTTSFXADRPCG (not fully specified; N-terminal acetyl (Ac*) joined by a sulfide bond to the side chain of Cys13 (cyclic); 7: L-(N-Me)Phe; 8: L-Bip; 9: L-(N-Me)Ala; C-terminal amide (NH2), also called 1-9; Ex. No. 1-9) [Ac*-F-V-S-T-T-S-(N-Me)F-B-(N-Me)A-D-R-P-C*-G-NH2] | 3 | 35 |
| {CH2CO}-FVDTTS[NMeA][Bip][NMeA]KSPCG-NH2 (thioether N-13; SMILES CC(C)[C@@H]1NC(=O)[C@H](Cc2ccccc2)NC(=O)CSC[C@@H](C(=O)NCC(N)=O)NC(=O)[C@@H]2CCCN2C(=O)[C@H](CO)NC(=O)[C@H](CCCCN)NC(=O)[C@H](C)N(C)C(=O)[C@H](Cc2ccc(-c3ccccc3)cc2)NC(=O)[C@H](C)N(C)C(=O)[C@H](CO)NC(=O)[C@H]([C@@H](C)O)NC(=O)[C@H]([C@@H](C)O)NC(=O)[C@H](CC(=O)O)NC1=O, also called 1-7; Ex. No. 1-7) [Ac*-F-V-D-T-T-S-(N-Me)A-B-(N-Me)A-K-S-P-C*-G-NH2] | 410 | 60 |
| {CH2CO}-FVDTTS[NMeF][Bip][NMeA]ESPCG-NH2 (thioether N-13; SMILES CC(C)[C@@H]1NC(=O)[C@H](Cc2ccccc2)NC(=O)CSC[C@@H](C(=O)NCC(N)=O)NC(=O)[C@@H]2CCCN2C(=O)[C@H](CO)NC(=O)[C@H](CCC(=O)O)NC(=O)[C@H](C)N(C)C(=O)[C@H](Cc2ccc(-c3ccccc3)cc2)NC(=O)[C@H](Cc2ccccc2)N(C)C(=O)[C@H](CO)NC(=O)[C@H]([C@@H](C)O)NC(=O)[C@H]([C@@H](C)O)NC(=O)[C@H](CC(=O)O)NC1=O, also called 1-5; Ex. No. 1-5) [Ac*-F-V-D-T-T-S-(N-Me)F-B-(N-Me)A-E-S-P-C*-G-NH2] | 35 | 95 |
| {CH2CO}-FVDTTS[NMeF][Bip][NMeA]NSPCG-NH2 (thioether N-13; SMILES CC(C)[C@@H]1NC(=O)[C@H](Cc2ccccc2)NC(=O)CSC[C@@H](C(=O)NCC(N)=O)NC(=O)[C@@H]2CCCN2C(=O)[C@H](CO)NC(=O)[C@H](CC(N)=O)NC(=O)[C@H](C)N(C)C(=O)[C@H](Cc2ccc(-c3ccccc3)cc2)NC(=O)[C@H](Cc2ccccc2)N(C)C(=O)[C@H](CO)NC(=O)[C@H]([C@@H](C)O)NC(=O)[C@H]([C@@H](C)O)NC(=O)[C@H](CC(=O)O)NC1=O, also called 1-3; Ex. No. 1-3) [Ac*-F-V-D-T-T-S-(N-Me)F-B-(N-Me)A-N-S-P-C*-G-NH2] | 2.1 | 55 |
| {CH2CO}-FVDTTS[NMeF][Bip][NMeE]NSPCG-NH2 (thioether N-13; SMILES CC(C)[C@@H]1NC(=O)[C@H](Cc2ccccc2)NC(=O)CSC[C@@H](C(=O)NCC(N)=O)NC(=O)[C@@H]2CCCN2C(=O)[C@H](CO)NC(=O)[C@H](CC(N)=O)NC(=O)[C@H](CCC(=O)O)N(C)C(=O)[C@H](Cc2ccc(-c3ccccc3)cc2)NC(=O)[C@H](Cc2ccccc2)N(C)C(=O)[C@H](CO)NC(=O)[C@H]([C@@H](C)O)NC(=O)[C@H]([C@@H](C)O)NC(=O)[C@H](CC(=O)O)NC1=O, also called 1-1; Ex. No. 1-1) [Ac*-F-V-D-T-T-S-(N-Me)F-B-(N-Me)E-N-S-P-C*-G-NH2] | 2.6 | 65 |
| FVSTTSFXAESPCG (not fully specified; N-terminal acetyl (Ac*) joined by a sulfide bond to the side chain of Cys13 (cyclic); 7: L-(N-Me)Phe; 8: L-Bip; 9: L-(N-Me)Ala; C-terminal amide (NH2), also called 1-12; Ex. No. 1-12) [Ac*-F-V-S-T-T-S-(N-Me)F-B-(N-Me)A-E-S-P-C*-G-NH2] | 14 | 87 |
| FVSTTXAXADSPCG (not fully specified; N-terminal acetyl (Ac*) joined by a sulfide bond to the side chain of Cys13 (cyclic); 6: L-Bip; 7: L-(N-Me)Ala; 8: L-Bip; 9: L-(N-Me)Ala; C-terminal amide (NH2), also called 1-8; Ex. No. 1-8) [Ac*-F-V-S-T-T-B-(N-Me)A-B-(N-Me)A-D-S-P-C*-G-NH2] | 2.3 | 58 |
| {CH2CO}-FVSTT[Bip][NMeA][Phe(3,4-Cl2)][NMeA]DRPCG-NH2 (thioether N-13; SMILES CC(C)[C@@H]1NC(=O)[C@H](Cc2ccccc2)NC(=O)CSC[C@@H](C(=O)NCC(N)=O)NC(=O)[C@@H]2CCCN2C(=O)[C@H](CCCNC(=N)N)NC(=O)[C@H](CC(=O)O)NC(=O)[C@H](C)N(C)C(=O)[C@H](Cc2ccc(Cl)c(Cl)c2)NC(=O)[C@H](C)N(C)C(=O)[C@H](Cc2ccc(-c3ccccc3)cc2)NC(=O)[C@H]([C@@H](C)O)NC(=O)[C@H]([C@@H](C)O)NC(=O)[C@H](CO)NC1=O, also called 1-14; Ex. No. 1-14) [Ac*-F-V-S-T-T-B-(N-Me)A-(3,4-diCl)F-(N-Me)A-D-R-P-C*-G-NH2] | 1.2 | 49 |
| FVSTTXAXAESPCG (not fully specified; N-terminal acetyl (Ac*) joined by a sulfide bond to the side chain of Cys13 (cyclic); 6: L-Bip; 7: L-(N-Me)Ala; 8: L-Bip; 9: L-(N-Me)Ala; C-terminal amide (NH2), also called 1-25; Ex. No. 1-25) [Ac*-F-V-S-T-T-B-(N-Me)A-B-(N-Me)A-E-S-P-C*-G-NH2] | 2.5 | 68 |
| {CH2CO}-FVDTT[Bip][NMeA][Bip][NMeA]ESPCG-NH2 (thioether N-13; SMILES CC(C)[C@@H]1NC(=O)[C@H](Cc2ccccc2)NC(=O)CSC[C@@H](C(=O)NCC(N)=O)NC(=O)[C@@H]2CCCN2C(=O)[C@H](CO)NC(=O)[C@H](CCC(=O)O)NC(=O)[C@H](C)N(C)C(=O)[C@H](Cc2ccc(-c3ccccc3)cc2)NC(=O)[C@H](C)N(C)C(=O)[C@H](Cc2ccc(-c3ccccc3)cc2)NC(=O)[C@H]([C@@H](C)O)NC(=O)[C@H]([C@@H](C)O)NC(=O)[C@H](CC(=O)O)NC1=O, also called 1-10; Ex. No. 1-10) [Ac*-F-V-D-T-T-B-(N-Me)A-B-(N-Me)A-E-S-P-C*-G-NH2] | 6 | 90 |
| FVSTTXAXAPSPCG (not fully specified; N-terminal acetyl (Ac*) joined by a sulfide bond to the side chain of Cys13 (cyclic); 6: L-Bip; 7: L-(N-Me)Ala; 8: L-Bip; 9: L-(N-Me)Ala; C-terminal amide (NH2), also called 1-20; Ex. No. 1-20) [Ac*-F-V-S-T-T-B-(N-Me)A-B-(N-Me)A-P-S-P-C*-G-NH2] | 8.1 | 35 |
| {CH2CO}-FVSTT[Bip][NMeA][Phe(3-F)][NMeA]DRPCG-NH2 (thioether N-13; SMILES CC(C)[C@@H]1NC(=O)[C@H](Cc2ccccc2)NC(=O)CSC[C@@H](C(=O)NCC(N)=O)NC(=O)[C@@H]2CCCN2C(=O)[C@H](CCCNC(=N)N)NC(=O)[C@H](CC(=O)O)NC(=O)[C@H](C)N(C)C(=O)[C@H](Cc2cccc(F)c2)NC(=O)[C@H](C)N(C)C(=O)[C@H](Cc2ccc(-c3ccccc3)cc2)NC(=O)[C@H]([C@@H](C)O)NC(=O)[C@H]([C@@H](C)O)NC(=O)[C@H](CO)NC1=O, also called 1-15; Ex. No. 1-15) [Ac*-F-V-S-T-T-B-(N-Me)A-(3-F)F-(N-Me)A-D-R-P-C*-G-NH2] | 12 | 53 |
| {CH2CO}-FVSTT[Bip][NMeA][Bip][NMeA]DRPCG-NH2 (thioether N-13, also called 1-2; Ex. No. 1-2) [Ac*-F-V-S-T-T-B-(N-Me)A-B-(N-Me)A-D-R-P-C*-G-NH2] | 1.3 | – |
| {CH2CO}-FVDTT[Bip][NMeA][Phe(3,4-Cl2)][NMeA]ESPCG-NH2 (thioether N-13; SMILES CC(C)[C@@H]1NC(=O)[C@H](Cc2ccccc2)NC(=O)CSC[C@@H](C(=O)NCC(N)=O)NC(=O)[C@@H]2CCCN2C(=O)[C@H](CO)NC(=O)[C@H](CCC(=O)O)NC(=O)[C@H](C)N(C)C(=O)[C@H](Cc2ccc(Cl)c(Cl)c2)NC(=O)[C@H](C)N(C)C(=O)[C@H](Cc2ccc(-c3ccccc3)cc2)NC(=O)[C@H]([C@@H](C)O)NC(=O)[C@H]([C@@H](C)O)NC(=O)[C@H](CC(=O)O)NC1=O, also called 1-26; Ex. No. 1-26) [Ac*-F-V-D-T-T-B-(N-Me)A-(3,4-diCl)F-(N-Me)A-E-S-P-C*-G-NH2] | 2.4 | 84 |
| {CH2CO}-FVSTT[Phe(4-CF3)][NMeA][Phe(4-CF3)][NMeA]ERPCG-NH2 (thioether N-13; SMILES CC(C)[C@@H]1NC(=O)[C@H](Cc2ccccc2)NC(=O)CSC[C@@H](C(=O)NCC(N)=O)NC(=O)[C@@H]2CCCN2C(=O)[C@H](CCCNC(=N)N)NC(=O)[C@H](CCC(=O)O)NC(=O)[C@H](C)N(C)C(=O)[C@H](Cc2ccc(C(F)(F)F)cc2)NC(=O)[C@H](C)N(C)C(=O)[C@H](Cc2ccc(C(F)(F)F)cc2)NC(=O)[C@H]([C@@H](C)O)NC(=O)[C@H]([C@@H](C)O)NC(=O)[C@H](CO)NC1=O, also called 1-11; Ex. No. 1-11) [Ac*-F-V-S-T-T-(p-CF3)F-(N-Me)A-(p-CF3)F-(N-Me)A-E-R-P-C*-G-NH2] | 3.6 | 55 |
| FVSTTXFXAESPCG (not fully specified; N-terminal acetyl (Ac*) joined by a sulfide bond to the side chain of Cys13 (cyclic); 6: L-Bip; 7: L-(N-Me)Phe; 8: L-Bip; 9: L-(N-Me)Ala; C-terminal amide (NH2), also called 1-13; Ex. No. 1-13) [Ac*-F-V-S-T-T-B-(N-Me)F-B-(N-Me)A-E-S-P-C*-G-NH2] | 7.8 | 86 |
| {CH2CO}-FVPTT[Bip][NMeA][Bip][NMeA]DRPCG-NH2 (thioether N-13; SMILES CC(C)[C@@H]1NC(=O)[C@H](Cc2ccccc2)NC(=O)CSC[C@@H](C(=O)NCC(N)=O)NC(=O)[C@@H]2CCCN2C(=O)[C@H](CCCNC(=N)N)NC(=O)[C@H](CC(=O)O)NC(=O)[C@H](C)N(C)C(=O)[C@H](Cc2ccc(-c3ccccc3)cc2)NC(=O)[C@H](C)N(C)C(=O)[C@H](Cc2ccc(-c3ccccc3)cc2)NC(=O)[C@H]([C@@H](C)O)NC(=O)[C@H]([C@@H](C)O)NC(=O)[C@@H]2CCCN2C1=O, also called 1-19; Ex. No. 1-19) [Ac*-F-V-P-T-T-B-(N-Me)A-B-(N-Me)A-D-R-P-C*-G-NH2] | 2.7 | 38 |
